Columns and labels:
[1] = target: membrane-bound endogenous human CEACAM5 and CEACAM6 on LS 174T cells; assay: flow cytometry on LS174T cells with against without 100 nM soluble CEACAM6
[2] = target: membrane-bound endogenous human CEACAM5 and CEACAM6 on BxPC3 cells; assay: flow cytometry on BxPC3 cells with against without 100 nM soluble CEACAM6
[3] = target: membrane-bound endogenous human CEACAM5 and CEACAM6 on A549 cells; assay: flow cytometry on A549 cells (printed over the panel: CEACAM5-, CEACAM6+), MFI

B1: PR303563 (Tinurilimab) (antibody, human IgG2, kappa, V domains shown)
VH: QVTLRESGPALVKPTQTLTLTCTFSGFSLSTYGIGVGWIRQPPGKALEWLAHIWWNDNKYYSTSLKTRLTISKDTSKNQVVLTMTNMDPVDTATYYCARISLPYFDYWGQGTTLTVSS
VL: DIQLTQSPSFLSASVGDRVTITCKASQNVGTAVAWYQQKPGKAPKLLIYSASNRYTGVPSRFSGSGSGTEFTLTISSLQPEDFATYYCQQYSSYPLTFGGGTKVEIKR
B1 was tested, and the fold change of EC50 at the presence of 100 nM soluble protein [1] was 6.9 fold, the fold change of EC50 at the presence of 100 nM soluble protein [2] was 4.1 fold and the EC50 (read off the curve) [3] was 0.1 nM.

Source: patent US20260258125A1
